Ends that are not written are not given here.
Key:
CRF2R = biological target: T1, CRF2R; test: cell-based or functional assay
T1 sequence (Q13324 whole entry, species assumed, looked up): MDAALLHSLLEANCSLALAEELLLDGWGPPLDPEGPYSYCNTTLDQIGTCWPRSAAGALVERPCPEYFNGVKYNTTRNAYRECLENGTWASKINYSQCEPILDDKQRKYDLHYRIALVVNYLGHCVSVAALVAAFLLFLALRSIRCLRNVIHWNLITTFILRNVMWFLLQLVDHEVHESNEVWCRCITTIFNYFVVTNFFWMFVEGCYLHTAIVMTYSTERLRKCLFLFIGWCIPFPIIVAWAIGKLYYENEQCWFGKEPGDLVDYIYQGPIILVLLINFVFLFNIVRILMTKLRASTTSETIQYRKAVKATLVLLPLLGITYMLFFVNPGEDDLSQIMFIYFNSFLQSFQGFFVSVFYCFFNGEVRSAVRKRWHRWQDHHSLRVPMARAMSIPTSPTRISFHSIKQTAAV

CRF1R = test: cell-based or functional assay

B1: SEQ ID NO 177 (peptide)
peptide: DNPSLSIDLPLYLLRTLLELARTQSQRERAEQNAIIFASV-NH2
With B1 the “CRF2R EC50” value (CRF2R) was 5.63 nM, the “CRF2R Emax” value (CRF2R) was 97.7% and the “CRF1R EC50” value (CRF1R) was 613 nM. For the same binder, the “CRF1R Emax” value (CRF1R) was 69.2%.

B2: SEQ ID NO 175 (peptide)
peptide: DNPSLSIDLPLILLRTLLELARTQSQRERAEQNAIIFASV-NH2
B2 was tested, and the “CRF2R EC50” value (CRF2R) was 5.42 nM, the “CRF2R Emax” value (CRF2R) was 92.2% and the “CRF1R EC50” value (CRF1R) was 1000 nM. For the same binder, the “CRF1R Emax” value (CRF1R) was 34.8%.

B3: SEQ ID NO 184 (peptide)
peptide: DNPSLSIDLPFFLLRTLLELARTQSQRERAEQNAIIFASV-NH2
With B3 the “CRF2R EC50” value (CRF2R) was 3.72 nM, the “CRF2R Emax” value (CRF2R) was 96.5% and the “CRF1R EC50” value (CRF1R) was 486 nM. For the same binder, the “CRF1R Emax” value (CRF1R) was 77.3%.

B4: SEQ ID NO 183 (peptide)
peptide: DNPSLSIDLPFYLLRTLLELARTQSQRERAEQNAIIFASV-NH2
B4 was tested, and the “CRF2R EC50” value (CRF2R) was 7.93 nM, the “CRF2R Emax” value (CRF2R) was 100% and the “CRF1R EC50” value (CRF1R) was 415 nM. For the same binder, the “CRF1R Emax” value (CRF1R) was 57.5%.

B5: SEQ ID NO 181 (peptide)
peptide: DNPSLSIDLPFILLRTLLELARTQSQRERAEQNAIIFASV-NH2
B5 was tested, and the “CRF2R EC50” value (CRF2R) was 5.22 nM, the “CRF2R Emax” value (CRF2R) was 97.8% and the “CRF1R EC50” value (CRF1R) was 154 nM. For the same binder, the “CRF1R Emax” value (CRF1R) was 100%.

B6: SEQ ID NO 176 (peptide)
peptide: DNPSLSIDLPLQLLRTLLELARTQSQRERAEQNAIIFASV-NH2
With B6 the “CRF2R EC50” value (CRF2R) was 12.6 nM, the “CRF2R Emax” value (CRF2R) was 90.2% and the “CRF1R EC50” value (CRF1R) was 1000 nM. The “CRF1R Emax” value (CRF1R) was 26.9%.

B7: SEQ ID NO 179 (peptide)
peptide: DNPSLSIDLPLHLLRTLLELARTQSQRERAEQNAIIFASV-NH2
With B7 the “CRF2R EC50” value (CRF2R) was 10.2 nM, the “CRF2R Emax” value (CRF2R) was 92.5% and the “CRF1R EC50” value (CRF1R) was 477 nM. The “CRF1R Emax” value (CRF1R) was 78.9%.

B8: SEQ ID NO 173 (peptide)
peptide: DNPSLSIDLPTYLLRTLLELARTQSQRERAEQNAIIFASV-NH2
With B8 the “CRF2R EC50” value (CRF2R) was 100 nM, the “CRF2R Emax” value (CRF2R) was 65.2% and the “CRF1R EC50” value (CRF1R) was 1000 nM. The “CRF1R Emax” value (CRF1R) was 6.05%.

B9: SEQ ID NO 185 (peptide)
peptide: DNPSLSIDLPFHLLRTLLELARTQSQRERAEQNAIIFASV-NH2
In the case of B9, the “CRF2R EC50” value (CRF2R) is reported as 8.98 nM, the “CRF2R Emax” value (CRF2R) is reported as 100% and the “CRF1R EC50” value (CRF1R) is reported as 358 nM. For the same binder, the “CRF1R Emax” value (CRF1R) was 95.8%.

B10: SEQ ID NO 174 (peptide)
peptide: DNPSLSIDLPLLLLRTLLELARTQSQRERAEQNAIIFASV-NH2
For B10, the “CRF2R EC50” value (CRF2R) was 4.42 nM, the “CRF2R Emax” value (CRF2R) was 97.2% and the “CRF1R EC50” value (CRF1R) was 1000 nM. For the same binder, the “CRF1R Emax” value (CRF1R) was 29.1%.

B11: SEQ ID NO 186 (peptide)
peptide: ZGPPISIDLPHWLLRKMIEIEKQEKEKQQAANNRLLLDTI
modifications: C-terminal amide
With B11 the “CRF2R EC50” value (CRF2R) was 25.1 nM, the “CRF2R Emax” value (CRF2R) was 100% and the “CRF1R EC50” value (CRF1R) was 323 nM. The “CRF1R Emax” value (CRF1R) was 100%.

B12: SEQ ID NO 193 (peptide)
peptide: ZGPPISIDLPLVLLRKMIEIEKQEKEKQQAANNRLLLDTI
modifications: C-terminal amide
B12 was tested, and the “CRF2R EC50” value (CRF2R) was 10.1 nM, the “CRF2R Emax” value (CRF2R) was 97% and the “CRF1R EC50” value (CRF1R) was 266 nM. For the same binder, the “CRF1R Emax” value (CRF1R) was 95%.

B13: SEQ ID NO 187 (peptide)
peptide: ZGPPISIDLPWFLLRKMIEIEKQEKEKQQAANNRLLLDTI
modifications: C-terminal amide
With B13 the “CRF2R EC50” value (CRF2R) was 10.3 nM, the “CRF2R Emax” value (CRF2R) was 100% and the “CRF1R EC50” value (CRF1R) was 31.6 nM. For the same binder, the “CRF1R Emax” value (CRF1R) was 72%.

B14: SEQ ID NO 188 (peptide)
peptide: ZGPPISIDLPLLLLRKMIEIEKQEKEKQQAANNRLLLDTI
modifications: C-terminal amide
With B14 the “CRF2R EC50” value (CRF2R) was 14.6 nM, the “CRF2R Emax” value (CRF2R) was 100% and the “CRF1R EC50” value (CRF1R) was 162 nM. The “CRF1R Emax” value (CRF1R) was 96%.

B15: SEQ ID NO 192 (peptide)
peptide: ZGPPISIDLPIWLLRKMIEIEKQEKEKQQAANNRLLLDTI
modifications: C-terminal amide
For B15, the “CRF2R EC50” value (CRF2R) was 66.8 nM, the “CRF2R Emax” value (CRF2R) was 97% and the “CRF1R EC50” value (CRF1R) was 562 nM. The “CRF1R Emax” value (CRF1R) was 99%.

B16: SEQ ID NO 178 (peptide)
peptide: DNPSLSIDLPLFLLRTLLELARTQSQRERAEQNAIIFASV-NH2
For B16, the “CRF2R EC50” value (CRF2R) was 5.17 nM, the “CRF2R Emax” value (CRF2R) was 96.5% and the “CRF1R EC50” value (CRF1R) was 1000 nM. The “CRF1R Emax” value (CRF1R) was 55.7%.

B17: SEQ ID NO 180 (peptide)
peptide: DNPSLSIDLPFLLLRTLLELARTQSQRERAEQNAIIFASV-NH2
For B17, the “CRF2R EC50” value (CRF2R) was 3.14 nM, the “CRF2R Emax” value (CRF2R) was 95.7% and the “CRF1R EC50” value (CRF1R) was 125 nM. The “CRF1R Emax” value (CRF1R) was 99.3%.

B18: SEQ ID NO 182 (peptide)
peptide: DNPSLSIDLPFQLLRTLLELARTQSQRERAEQNAIIFASV-NH2
For B18, the “CRF2R EC50” value (CRF2R) was 7.21 nM, the “CRF2R Emax” value (CRF2R) was 91.4% and the “CRF1R EC50” value (CRF1R) was 409 nM. For the same binder, the “CRF1R Emax” value (CRF1R) was 89.7%.

B19: SEQ ID NO 18 (peptide)
peptide: ZGPPISIDLPFQLLRKMIEIEKQEKEKQQATTNRLLLDRV
modifications: C-terminal amide
For B19, the “CRF2R EC50” value (CRF2R) was 5.29 nM, the “CRF2R Emax” value (CRF2R) was 97% and the “CRF1R EC50” value (CRF1R) was 106 nM. For the same binder, the “CRF1R Emax” value (CRF1R) was 100%.

B20: SEQ ID NO 189 (peptide)
peptide: ZGPPISIDLPFILLRKMIEIEKQEKEKQQAANNRLLLDTI
modifications: C-terminal amide
In the case of B20, the “CRF2R EC50” value (CRF2R) is reported as 7 nM, the “CRF2R Emax” value (CRF2R) is reported as 96% and the “CRF1R EC50” value (CRF1R) is reported as 62.2 nM. For the same binder, the “CRF1R Emax” value (CRF1R) was 57%.

B21: SEQ ID NO 19 (peptide)
peptide: ZGPPISIDLPFQLLRKMIEIEKQEKEKQQATTNRLLLARV
modifications: C-terminal amide
For B21, the “CRF2R EC50” value (CRF2R) was 7.42 nM, the “CRF2R Emax” value (CRF2R) was 75% and the “CRF1R EC50” value (CRF1R) was 232 nM. For the same binder, the “CRF1R Emax” value (CRF1R) was 83%.

B22: SEQ ID NO 190 (peptide)
peptide: ZGPPISIDLPFVLLRKMIEIEKQEKEKQQAANNRLLLDTI
modifications: C-terminal amide
For B22, the “CRF2R EC50” value (CRF2R) was 39.6 nM, the “CRF2R Emax” value (CRF2R) was 31% and the “CRF1R EC50” value (CRF1R) was > 100 nM. The “CRF1R Emax” value (CRF1R) was 9%.

B23: SEQ ID NO 191 (peptide)
peptide: ZGPPISIDLPFLLLRKMIEIEKQEKEKQQAANNRLLLDTI
modifications: C-terminal amide
For B23, the “CRF2R EC50” value (CRF2R) was 8.3 nM, the “CRF2R Emax” value (CRF2R) was 100% and the “CRF1R EC50” value (CRF1R) was 63.7 nM. For the same binder, the “CRF1R Emax” value (CRF1R) was 65%.
